Tests used:
[1] = target: eOD-60mer (eOD-GT8 60mer; eOD-GT8 fused to lumazine synthase, self-assembled 60-mer nanoparticle); test: biolayer interferometry, eOD-60mer in solution on immobilized biotinylated mouse MBL; apparent affinity (avidity)
[2] = target: recombinant mouse mannose-binding lectin (MBL) (mouse); test: biolayer interferometry; eOD-60mer dilutions on biosensors loaded with biotinylated recombinant mouse MBL; apparent affinity [eOD-60mer]

Substance	Kd [1] [pM]	Kd [2] [pM]
recombinant mouse mannose-binding lectin (MBL)	4	–
eOD-60mer (eOD-GT8 60mer; eOD-GT8 fused to lumazine synthase, self-assembled 60-mer nanoparticle)	–	3.78

Reference: US20210363194A1
